# Reference: patent publication US20180155451A1 (published 2018)
# T1: FcγRIIb (human, UniProt P31994 43-217)
# T1 construct: extracellular domain; also called FcgRIIb; 2b
# T1 sequence (looked up): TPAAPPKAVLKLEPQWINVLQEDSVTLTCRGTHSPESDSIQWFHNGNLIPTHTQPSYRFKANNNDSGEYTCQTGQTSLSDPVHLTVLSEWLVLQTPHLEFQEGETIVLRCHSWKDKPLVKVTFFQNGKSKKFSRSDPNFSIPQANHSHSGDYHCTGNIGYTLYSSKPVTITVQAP
# Key:
# FcγRIa = molecular target: T2, FcγRIa (human, UniProt P12314 16-292); assay: SPR, captured antibody; relative to GpH7-A5/GpH7-B3/GpL16-k0
# T2 construct: extracellular domain; also called FcgRI; 1a
# T2 sequence (P12314 16-292): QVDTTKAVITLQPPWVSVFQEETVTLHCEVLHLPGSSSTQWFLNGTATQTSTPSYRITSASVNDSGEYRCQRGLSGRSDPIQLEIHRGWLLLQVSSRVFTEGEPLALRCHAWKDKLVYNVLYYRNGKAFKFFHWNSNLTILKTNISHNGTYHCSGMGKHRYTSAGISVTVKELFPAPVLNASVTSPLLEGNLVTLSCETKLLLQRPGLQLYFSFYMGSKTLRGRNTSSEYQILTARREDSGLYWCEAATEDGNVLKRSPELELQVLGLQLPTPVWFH
# FcγRIIb = molecular target: T1, FcγRIIb; assay: as above
He/Con_1a (FcγRIa),He/Con_2b (FcγRIIb),Binder
"107 relative, HeCon Ab = 100","67.8 relative, HeCon Ab = 100","GpH7-A5/GpH7-B3 variant (H268_08L)/GpL16-k0 (antibody, human IgG1, kappa, IgG1 heterodimer, mutation in the GpH7-B3 chain only; also called He Ab) heavy 1: not shown heavy 2: not shown light: DIVMTQSPLSLPVTPGEPASISCQASESLVHSNRNTYLHWYLQKPGQSPQLLIYKVSNRFSGVPDRFSGSGSGTDFTLKISRVEAEDVGVYYCSQNTHVPPTFGQGTKVEIERTVAAPSVFIFPPSDEQLKSGTASVVCLLNNFYPREAKVQWKVDNALQSGNSQESVTEQDSKDSTYSLSSTLTLSKADYEKHKVYACEVTHQGLSSPVTKSFNRGEC"
"112 relative, HeCon Ab = 100","86 relative, HeCon Ab = 100","GpH7-A5/GpH7-B3 variant (H268_14T)/GpL16-k0 (antibody, human IgG1, kappa, IgG1 heterodimer, mutation in the GpH7-B3 chain only; also called He Ab) heavy 1: not shown heavy 2: not shown light: DIVMTQSPLSLPVTPGEPASISCQASESLVHSNRNTYLHWYLQKPGQSPQLLIYKVSNRFSGVPDRFSGSGSGTDFTLKISRVEAEDVGVYYCSQNTHVPPTFGQGTKVEIERTVAAPSVFIFPPSDEQLKSGTASVVCLLNNFYPREAKVQWKVDNALQSGNSQESVTEQDSKDSTYSLSSTLTLSKADYEKHKVYACEVTHQGLSSPVTKSFNRGEC"
"101 relative, HeCon Ab = 100","99.8 relative, HeCon Ab = 100","GpH7-A5/GpH7-B3 variant (L234_04F)/GpL16-k0 (antibody, human IgG1, kappa, IgG1 heterodimer, mutation in the GpH7-B3 chain only; also called He Ab) heavy 1: not shown heavy 2: not shown light: DIVMTQSPLSLPVTPGEPASISCQASESLVHSNRNTYLHWYLQKPGQSPQLLIYKVSNRFSGVPDRFSGSGSGTDFTLKISRVEAEDVGVYYCSQNTHVPPTFGQGTKVEIERTVAAPSVFIFPPSDEQLKSGTASVVCLLNNFYPREAKVQWKVDNALQSGNSQESVTEQDSKDSTYSLSSTLTLSKADYEKHKVYACEVTHQGLSSPVTKSFNRGEC"
"94 relative, HeCon Ab = 100","59.4 relative, HeCon Ab = 100","GpH7-A5/GpH7-B3 variant (L234_16H)/GpL16-k0 (antibody, human IgG1, kappa, IgG1 heterodimer, mutation in the GpH7-B3 chain only; also called He Ab) heavy 1: not shown heavy 2: not shown light: DIVMTQSPLSLPVTPGEPASISCQASESLVHSNRNTYLHWYLQKPGQSPQLLIYKVSNRFSGVPDRFSGSGSGTDFTLKISRVEAEDVGVYYCSQNTHVPPTFGQGTKVEIERTVAAPSVFIFPPSDEQLKSGTASVVCLLNNFYPREAKVQWKVDNALQSGNSQESVTEQDSKDSTYSLSSTLTLSKADYEKHKVYACEVTHQGLSSPVTKSFNRGEC"
"104 relative, HeCon Ab = 100","78.5 relative, HeCon Ab = 100","GpH7-A5/GpH7-B3 variant (L234_06M)/GpL16-k0 (antibody, human IgG1, kappa, IgG1 heterodimer, mutation in the GpH7-B3 chain only; also called He Ab) heavy 1: not shown heavy 2: not shown light: DIVMTQSPLSLPVTPGEPASISCQASESLVHSNRNTYLHWYLQKPGQSPQLLIYKVSNRFSGVPDRFSGSGSGTDFTLKISRVEAEDVGVYYCSQNTHVPPTFGQGTKVEIERTVAAPSVFIFPPSDEQLKSGTASVVCLLNNFYPREAKVQWKVDNALQSGNSQESVTEQDSKDSTYSLSSTLTLSKADYEKHKVYACEVTHQGLSSPVTKSFNRGEC"
"100 relative, HeCon Ab = 100","96.3 relative, HeCon Ab = 100","GpH7-A5/GpH7-B3 variant (L234_15Y)/GpL16-k0 (antibody, human IgG1, kappa, IgG1 heterodimer, L234Y in the GpH7-B3 chain only; also called GpH7-A5/GpH7-B3-01-15Y/GpL16-k0; He Ab) heavy 1: not shown heavy 2: not shown light: DIVMTQSPLSLPVTPGEPASISCQASESLVHSNRNTYLHWYLQKPGQSPQLLIYKVSNRFSGVPDRFSGSGSGTDFTLKISRVEAEDVGVYYCSQNTHVPPTFGQGTKVEIERTVAAPSVFIFPPSDEQLKSGTASVVCLLNNFYPREAKVQWKVDNALQSGNSQESVTEQDSKDSTYSLSSTLTLSKADYEKHKVYACEVTHQGLSSPVTKSFNRGEC"
"104 relative, HeCon Ab = 100","73.1 relative, HeCon Ab = 100","GpH7-A5/GpH7-B3 variant (L234_03V)/GpL16-k0 (antibody, human IgG1, kappa, IgG1 heterodimer, mutation in the GpH7-B3 chain only; also called He Ab) heavy 1: not shown heavy 2: not shown light: DIVMTQSPLSLPVTPGEPASISCQASESLVHSNRNTYLHWYLQKPGQSPQLLIYKVSNRFSGVPDRFSGSGSGTDFTLKISRVEAEDVGVYYCSQNTHVPPTFGQGTKVEIERTVAAPSVFIFPPSDEQLKSGTASVVCLLNNFYPREAKVQWKVDNALQSGNSQESVTEQDSKDSTYSLSSTLTLSKADYEKHKVYACEVTHQGLSSPVTKSFNRGEC"
"96.9 relative, HeCon Ab = 100","59.3 relative, HeCon Ab = 100","GpH7-A5/GpH7-B3 variant (L234_13S)/GpL16-k0 (antibody, human IgG1, kappa, IgG1 heterodimer, mutation in the GpH7-B3 chain only; also called He Ab) heavy 1: not shown heavy 2: not shown light: DIVMTQSPLSLPVTPGEPASISCQASESLVHSNRNTYLHWYLQKPGQSPQLLIYKVSNRFSGVPDRFSGSGSGTDFTLKISRVEAEDVGVYYCSQNTHVPPTFGQGTKVEIERTVAAPSVFIFPPSDEQLKSGTASVVCLLNNFYPREAKVQWKVDNALQSGNSQESVTEQDSKDSTYSLSSTLTLSKADYEKHKVYACEVTHQGLSSPVTKSFNRGEC"
"91.8 relative, HeCon Ab = 100","18.9 relative, HeCon Ab = 100","GpH7-A5/GpH7-B3 variant (L234_12R)/GpL16-k0 (antibody, human IgG1, kappa, IgG1 heterodimer, mutation in the GpH7-B3 chain only; also called He Ab) heavy 1: not shown heavy 2: not shown light: DIVMTQSPLSLPVTPGEPASISCQASESLVHSNRNTYLHWYLQKPGQSPQLLIYKVSNRFSGVPDRFSGSGSGTDFTLKISRVEAEDVGVYYCSQNTHVPPTFGQGTKVEIERTVAAPSVFIFPPSDEQLKSGTASVVCLLNNFYPREAKVQWKVDNALQSGNSQESVTEQDSKDSTYSLSSTLTLSKADYEKHKVYACEVTHQGLSSPVTKSFNRGEC"
"97.5 relative, HeCon Ab = 100","64.9 relative, HeCon Ab = 100","GpH7-A5/GpH7-B3 variant (L234_02A)/GpL16-k0 (antibody, human IgG1, kappa, IgG1 heterodimer, mutation in the GpH7-B3 chain only; also called He Ab) heavy 1: not shown heavy 2: not shown light: DIVMTQSPLSLPVTPGEPASISCQASESLVHSNRNTYLHWYLQKPGQSPQLLIYKVSNRFSGVPDRFSGSGSGTDFTLKISRVEAEDVGVYYCSQNTHVPPTFGQGTKVEIERTVAAPSVFIFPPSDEQLKSGTASVVCLLNNFYPREAKVQWKVDNALQSGNSQESVTEQDSKDSTYSLSSTLTLSKADYEKHKVYACEVTHQGLSSPVTKSFNRGEC"
